From article doi:10.1101/2025.09.09.675230 come the findings set out here.

The target of this test is Measles virus fusion protein (F) ectodomain, prefusion-stabilized with E170G and E455G (FECT 2M) (Measles virus strain Ichinose-B95a). Kind of test: cryo-EM structure.

Consider “Measles virus fusion protein (F) ectodomain, prefusion-stabilized with E170G and E455G (FECT 2M) (domain or fragment)”, for which the stoichiometry N (commonly a count of units in the complex or per binding partner) turned out to be 3.
